Laboratory results reported in paper doi:10.1101/2024.09.08.611708 (2024).

Target: MpATG8A (M. polymorpha)
Assay: ITC

Sequence of MpATG8A (M. polymorpha) (chain, as listed by the source): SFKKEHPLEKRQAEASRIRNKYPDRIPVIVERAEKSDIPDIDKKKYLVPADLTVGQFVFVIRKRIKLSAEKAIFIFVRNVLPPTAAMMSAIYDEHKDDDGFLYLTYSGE

DWEIV [canonical AIM peptide (AIM wt)]
Kd: 55.6 nM
